{"source": "patent US7645449B2", "about": "“Sensitizing cells for apoptosis by selectively blocking cytokines” (priority 2003, dated 2010)", "molecules": {"B1": {"name": "IL-4: human recombinant IL-4 (protein, UniProt P05112 25-153, looked up)", "Interleukin-4": "HKCDITLQEIIKTLNSLTEQKTLCTELTVTDIFAASKNTTEKETFCRAATVLRQFYSHHEKDTRCLGATAQQFHRHKQLIRFLKRLDRNLWGLAGLNSCPVKEANQSTLENFLERLKTIMREKYSKCSS"}}, "test_system": "RT112 bladder carcinoma cells", "assay": "MTS viability of RT112 cells: chemotherapy- and anti-CD95-induced apoptosis", "format": "cell-based, human", "source_text": "Anticancer treatment using cytotoxic drugs mediates cell death by activating the intracellular apoptotic program. To determine whether IL-4 was able to inhibit apoptosis induced by chemotherapeutic drugs, bladder tumor cells (RT112) were pretreated for two days with different concentrations of IL-4 and subsequently exposed to camptothecin or etoposide.\nHuman LNCAP prostate cancer cell line and human MDA-MB-231 breast cancer cell line were obtained from the American Type Culture Collection (ATCC, Manassas, Va.). Human RT112 bladder carcinoma cell line was kindly provided by Dr. M. Cippitelli (Regina Elena Cancer Institute, Rome, Italy). Cells were grown in RPMI 1640 (Life Technologies Inc., Grand Island, N.Y.) containing 10% heat inactivated fetal bovine serum supplemented with L-Glutamine 2 mM and 100 units/ml Penicillin-Streptomycin. Cells were kept in 5% CO2 atmosphere and routinely passaged when 80-85% confluent. […] Camptothecin, cisplatin, daunorubicine, etoposide and vincristine were purchased from Sigma-Aldrich Inc. (Sain Louis, Mo.) and resuspended in DMSO (cisplatin, camptothecin and etoposide) or in H2O (daunorubicine and vincristine). Anti-CD95 agonistic antibody (clone CH11) was purchased from Upstate Biotechnology (Lake Placid, N.Y.). Monoclonal antibody anti-Bcl-XL (H5, mouse) was from Santa Cruz (Santa Cruz, Calif.), antibody anti-cFlip/FLAME-1 (NF6, mouse) was kindly provided by Dr. P.H. Krammer (German Cancer Reseach Center, Heidelberg, Germany). Antibody anti β-actin (goat) was purchased from Oncogene (Boston, Mass.):\nCell viability was determined using the CellTiter 96® AQueous One Solution Cell Proliferation Assay (Promega, Madison, Wis.), according to the manufacturer's instructions. The assay is based on reduction of 3-(4,5-dimethylthiazol-2-yl)-5-(3-carboxymethoxyphenyl)-2-(4-sulfophenyl)-2H-tetrazolium, inner salt (MTS) to a colored formazan product that is measured spectrophotometrically. Cells were seeded in 96-well tissue culture plates and incubated at 37° C. in a 5% CO2 incubator overnight. […] After two days cells were treated for 10 hours with chemotherapeutic drugs or anti-CD95, then 20 μl of MTS were added to each well. After 3 hours of incubation at 37° C. with the MTS reagent, the plates were read on a Multilabel Counter (Victor2, Wallac, Perkin-Ehmer Inc., Norwalk, Conn.) and dye absorbance was measured at 490 nm.\nThe percentage of apoptotic cells was derived from the percentage of viable cells that was directly calculated from the values of the MTS assay. The percentage of protection from apoptosis was determined as: % protection=100%−X\nX was calculated with the formule: (C1−C2):100=(S1−S2):X where:\nC1 is the viability of untreated control cells, C2 is the viability of control cells treated with the apoptotic stimulus, S1 and S2 are the viability of cells preincubated with cytoldnes or transduced with anti-apoptotic genes, untreated (S1) or treated (S2) with the apoptotic stimuli.\n(A) Percentage of viable RT112 bladder carcinoma cells pre-treated for two days with increasing doses of IL-4 (5, 10, 20, 50 and 100 ng/ml) which were maintained also during incubation with chemotherapeutic drugs and exposed to 50 ng/ml camptothecin of 7 μM etoposide. […] Cell viability was determined after 24 hours using the MTS assay as described in Materials and Methods and the percentage of protection from cell death was calculated as described in Materials and Methods. The results shown are the mean ±s.d. of four independent experiments.\nWhen the cytokine is removed by washing the percentage of protection is downmodulated.\n(E) IL-4 prevents anti CD95-induced apoptosis. […] Successively, cells were incubated with 30 ng/ml anti-CD95 agonistic antibody in standard medium, Control cells (−) were stimulated with anti-CD95 in the absence of cytokine pre-treatment. The results shown are the mean ±s.d. of four independent experiments.", "data": [{"molecule": "B1", "values": [{"measurement": "protection from chemotherapy-induced apoptosis at 20 ng/ml", "setting": "20 ng/ml IL-4 for two days, camptothecin or etoposide, viability after 24 hours", "value": "able to protect cells from chemotherapy-induced apoptosis"}, {"measurement": "time course of protection from etoposide-induced cell death", "setting": "7 μM etoposide, IL-4 maintained in the culture medium", "value": "protected from etoposide-induced cell death from day 2 to day 4"}, {"measurement": "protective effect after shorter pretreatment", "setting": "24 hours of IL-4 pretreatment", "value": "already consistent"}, {"measurement": "protection from chemotherapy-induced apoptosis at higher concentrations", "setting": "IL-4 higher than 20 ng/ml (50, 100 ng/ml)", "value": "protective effect is maintained"}, {"measurement": "protection of RT112 cells from drug-induced death", "setting": "pretreated two days with IL-4, then camptothecin or etoposide", "value": "significantly protected from drug-induced death"}, {"measurement": "CD95-induced apoptosis in bladder cancer cells", "setting": "two days IL-4 pretreatment, 30 ng/ml anti-CD95 agonistic antibody", "value": "significantly inhibit CD95-induced apoptosis"}]}]}
